Measured values reported in patent US12466859B2, “Desmoglein 2 (DSG2) binding proteins and uses therefor” (UNIVERSITY OF WASHINGTON THROUGH ITS CENTER FOR …, priority 2013, dated 2025).
Residue numbers refer to the chain shown, from its start. Names and notes keep the numbering of the source. “Also recorded” adds a separate entry of the source.

B1: D261N (protein)
chain: MKVSALKEKVSALKEKVSALKEKVSALKEKVSALKEGSGGGSGGGSGGGSNSIALKNNTLWTGPKPEANCIIEYGKQNPDSKLTLILVKNGGIVNGYVTLMGASDYVNTLFKNKNVSINVELYFDATGHILPDSSSLKTDLELKYKQTADFSARGFMPSTTAYPFVLPNAGTHNENYIFGQCYYKASNGALFPLEVTVMLNKRLPDSRTSYVMTFLWSLNAGLAPETTQATLITSPFTFSYIREDD
B2: JO-4 (protein)
chain: B1 chain with Y177F, N188D

Legend:
Ad3-GFP virus = assay: Competition of Ad3-GFP virus infection on HeLa cells; type: cell-based, adenovirus serotype 3; conditions: pre-incubation with knob; GFP expression
Description: FIG. 3A-3D. Competition of Ad3 virus by dimerized Ad3 knob mutants. FIG. 3A) Relative attachment of ^3H-labeled Ad3 virus in the presence of dimeric fiber knob mutants. 1.8×10^5 HeLa cells were incubated with Ad3 knob mutants at a concentration of 2.5 and 100 μg/ml on ice for 1 hour. Then 400 pfu/cell of ^3H-Ad3 virus was added on ice for another hour. Unbound virus particles were washed away. Attachment of virus particles incubated with PBS was taken as 100%. N=3. FIG. 3B1-3B2) Competition of Ad3-GFP virus infection on HeLa cells. 1.5×10^5 HeLa cells were seeded into 24 well plates. Cells were incubated with the Ad3 knob mutants at increasing concentrations for one hour at room temperature. 100 pfu/cell of Ad3-GFP virus were then added and GFP expression was analyzed 18 hours later by flow cytometry. FIG. 3B1) percentage of GFP positive cells. FIG. 3B2) mean fluorescence intensity. N=3. The standard deviation was less than 10%. FIG. 3C) Relative attachment of ^3H-labeled Ad3 virus in the presence of dimeric fiber knob mutants with multiple mutations. The study was performed as described in […]) The standard deviation was less than 10%. FIG. 3D) Competition of Ad3-GFP virus infection on HeLa cells. The study was performed as described in FIG. 3C) The standard deviation was less than 10%.
FIG. 9A1-9C. Analysis of dimeric Ad3 fiber knob mutants with increased affinity to DSG2. FIG. 9A1-9A2) Competition of Ad3-GFP virus infection on HeLa cells with dimeric affinity-enhanced mutant Y250F and JO-1 (dimeric wt Ad3 fiber knob). The experimental setting is as described for FIG. 3C. FIG. 9A1) percentage of GFP positive cells. FIG. 9A2) mean fluorescence intensity. N=3. The standard deviation was less than 10%. […] 100 pfu/cell of Ad3GFP virus were then added and GFP expression was analyzed 18 hours later. […]
Functional validation. […] Transduction was measured based on GFP expression (FIG. 3B). […] Dimeric Ad3 knob mutants with combined mutations were also analyzed for their ability to compete with Ad3 virus for attachment (FIG. 3C) and infection (FIG. 3D).

TNBC MDA-MB-231 tumors = assay: Enhancement of nab-paclitaxel/cetuximab therapy in orthotopic TNBC MDA-MB-231 tumors; type: in vivo, CB17 SCID-beige mice; conditions: 2 mg/kg i.v. 1 hour before cetuximab 10 mg/kg i.p. and nab-paclitaxel 5 mg/kg i.v., weekly
Description: FIG. 10A-10C. Combination of affinity-enhanced JO-1 versions with chemotherapy. FIG. 10A) Enhancement of irinotecan (I) therapy. The experimental setting was the same as in FIG. 5B. […] N=5. […] Mammary fat pad tumors were established from primary ovarian cancer ovc316 cells. Treatment was started when tumors reached a volume of 100 mm^3. Mice were injected intravenously with 2 mg/kg JO-1 or with 0.5 mg/kg JO-4, followed by an intravenous injection of PEGylated liposomal doxorubicin (PLD) (1 mg/kg) one hour later. Treatment was repeated weekly. […] A total of 4×10^6 TNBC MDA-MB-231 cells were injected into the mammary fat pad of CB17 SCID-beige mice. JO-4 (2 mg/kg) was intravenously injected 1 hour before the application of cetuximab (C) (10 mg/kg, i.p.) and nab-paclitaxel (nab-P) (5 mg/kg, i.v.). Treatment was given weekly. N=10 P<0.01 at day 25 for nab-P+C vs JO-4+nab-P+C.
A549, MDA-MB-231, and ovc316 xenograft tumors were established by injection of the corresponding tumor cells into the mammary fat pad (1:1 with Matrigel) of CB17 mice. TC1-DSG2 tumors were established by subcutaneous injection of TC1-DSG2 cells into DSG2 transgenic mice. […] Tumor volumes were measured three times a week. […]

Molecule | Inhibition of Ad3-GFP infection of HeLa cells, in words (Ad3-GFP virus) | Enhancement of nab-paclitaxel/cetuximab therapy (TNBC MDA-MB-231 tumors)
B1 | least reduced | –
B2 | – | significantly increased; also recorded: enhances therapy
